In publication PMC2628611:

Biological target: GST-DOC2b (wild type) (mouse) (UniProt P70169)
Assay: pull-down

Chain of UniProt P70169 (P70169 whole entry): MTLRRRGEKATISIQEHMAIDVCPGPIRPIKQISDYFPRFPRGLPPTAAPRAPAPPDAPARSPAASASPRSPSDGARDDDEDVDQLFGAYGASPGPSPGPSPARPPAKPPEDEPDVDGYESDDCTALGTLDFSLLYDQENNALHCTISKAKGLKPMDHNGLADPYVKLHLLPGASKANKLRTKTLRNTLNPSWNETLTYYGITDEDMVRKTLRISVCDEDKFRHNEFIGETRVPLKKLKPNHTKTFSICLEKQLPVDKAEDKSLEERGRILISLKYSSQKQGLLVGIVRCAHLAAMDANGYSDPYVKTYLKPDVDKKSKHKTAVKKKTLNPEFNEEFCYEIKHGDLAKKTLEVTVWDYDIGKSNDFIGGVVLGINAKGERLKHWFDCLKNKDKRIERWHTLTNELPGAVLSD

“recombinant syntaxin-4 (cleaved from GST syntaxin-4) (from UniProt P70452 1-298) (natural protein)” showed a percent of syntaxin-4 pulled down of 5%.
